Reference: publication PMC5679017 (Journal of medicinal chemistry, 2016)
Square brackets hold non-standard residues; d marks the D form. Ends that are not written are not given here.

Experiments:
Assay in all cases: radioligand binding
[1] = target: mouse melanocortin-4 receptor (mouse, UniProt P56450 1-332)
[2] = target: mouse melanocortin-3 receptor, Flag-tagged (mouse, UniProt P33033 1-323)
[3] = target: mouse melanocortin-1 receptor (mouse, UniProt Q01727 1-315)
Sequence of mouse melanocortin-1 receptor (Q01727 whole entry): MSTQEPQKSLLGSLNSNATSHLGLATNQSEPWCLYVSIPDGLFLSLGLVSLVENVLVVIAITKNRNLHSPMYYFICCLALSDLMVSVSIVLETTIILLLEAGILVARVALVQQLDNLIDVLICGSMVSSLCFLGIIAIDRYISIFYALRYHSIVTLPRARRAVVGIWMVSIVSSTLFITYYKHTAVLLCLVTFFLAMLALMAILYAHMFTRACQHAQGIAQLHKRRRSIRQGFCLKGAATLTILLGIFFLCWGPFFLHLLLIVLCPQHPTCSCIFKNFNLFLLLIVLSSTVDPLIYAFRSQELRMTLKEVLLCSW

Sequence of mouse melanocortin-4 receptor (P56450 whole entry): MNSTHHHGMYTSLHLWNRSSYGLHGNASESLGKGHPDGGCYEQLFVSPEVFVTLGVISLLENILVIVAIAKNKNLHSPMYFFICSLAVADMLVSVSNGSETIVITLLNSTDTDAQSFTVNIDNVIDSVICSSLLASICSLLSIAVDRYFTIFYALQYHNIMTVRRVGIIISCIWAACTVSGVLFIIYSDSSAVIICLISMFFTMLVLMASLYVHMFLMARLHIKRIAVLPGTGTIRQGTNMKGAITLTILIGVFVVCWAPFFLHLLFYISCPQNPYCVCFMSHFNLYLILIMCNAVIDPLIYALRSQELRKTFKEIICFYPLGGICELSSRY
Sequence of mouse melanocortin-3 receptor, Flag-tagged (P33033 whole entry): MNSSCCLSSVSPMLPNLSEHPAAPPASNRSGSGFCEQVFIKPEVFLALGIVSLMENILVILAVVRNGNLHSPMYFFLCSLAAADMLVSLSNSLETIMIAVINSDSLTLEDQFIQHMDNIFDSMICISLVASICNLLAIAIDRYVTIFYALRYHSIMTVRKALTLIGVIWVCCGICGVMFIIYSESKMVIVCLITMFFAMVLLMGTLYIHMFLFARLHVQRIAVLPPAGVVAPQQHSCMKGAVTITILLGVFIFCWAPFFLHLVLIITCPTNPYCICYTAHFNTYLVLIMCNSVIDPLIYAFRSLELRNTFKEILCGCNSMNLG

Row | IC50 [1] | IC50 [2] | IC50 [3] | Binder
1 | 258 nM | 8430 nM |  | PGPGPGPGPGPGH[dF]RW-NH2 (N-terminus assumed; SMILES N=C(N)NCCC[C@H](NC(=O)[C@@H](Cc1ccccc1)NC(=O)[C@H](Cc1c[nH]cn1)NC(=O)CNC(=O)[C@@H]1CCCN1C(=O)CNC(=O)[C@@H]1CCCN1C(=O)CNC(=O)[C@@H]1CCCN1C(=O)CNC(=O)[C@@H]1CCCN1C(=O)CNC(=O)[C@@H]1CCCN1C(=O)CNC(=O)[C@@H]1CCCN1)C(=O)N[C@@H](Cc1c[nH]c2ccccc12)C(N)=O) [compound 5 (CJL-1-41): His-DPhe-Arg-Trp-NH2 scaffold with (Pro-Gly)6 added to the N-terminus]
2 | 33 nM | 3250 nM | 27.5 nM | H[dF]RWPGPGPGPGPGPGH[dF]RW-NH2 [compound 6 (CJL-1-31): homobivalent ligand, two His-DPhe-Arg-Trp scaffolds joined by (Pro-Gly)6]
3 | 841 nM |  | 225 nM | Ac-H[dF]RWPGPGPGPGPGPG-NH2 (SMILES CC(=O)N[C@@H](Cc1c[nH]cn1)C(=O)N[C@H](Cc1ccccc1)C(=O)N[C@@H](CCCNC(=N)N)C(=O)N[C@@H](Cc1c[nH]c2ccccc12)C(=O)N1CCC[C@H]1C(=O)NCC(=O)N1CCC[C@H]1C(=O)NCC(=O)N1CCC[C@H]1C(=O)NCC(=O)N1CCC[C@H]1C(=O)NCC(=O)N1CCC[C@H]1C(=O)NCC(=O)N1CCC[C@H]1C(=O)NCC(N)=O) [compound 4 (CJL-5-35-1): Ac-His-DPhe-Arg-Trp-NH2 scaffold with (Pro-Gly)6 added to the C-terminus]
